According to paper PMC12622487:

Biological target: Cys32 (UniProt position 32, FSATWCGPCKM)
Conditions: Reduced (free thiol) form is presumed; not explicitly stated for the pKa determination.

Q: With “Thioredoxin-1 (native recombinant human TRX, rhTRX) (Homo sapiens)” as the substance, how does the pKa read?
A: Its pKa is 6.3.
